Measurements as given in US7888116B2, “Uses of notch receptors, notch ligands, and notch modulators in methods related to metabolic diseases” (The United States of America as represented by the …, priority 2005, dated 2011).

System: Notch-1 (NICD)
Experiment: NICD nuclear translocation in RIN cells (indirect immunofluorescence, immunoblot of nuclear extracts)
Type: cell-based, rat
Settings: RIN cells treated with secretagogues
Method: Islet isolation, cell culture and treatments. Adult rat (Sprague-Dawley) and mouse (C57/BL6) islets were isolated by collagenase P digestion and cultured overnight in M199 medium (5 mM glucose). RIN 1046-38 β-cells were cultured as outlined previously (Wang, et al., Endocrinology, 142:1820-1827 (2001)). Isolated human islets came from David Harlan, Transplant Section, NIDDK. Ex-4, GLP-1, CCK (all used at concentrations previously shown to cause maximum insulin release), Ex and the γ-secretase inhibitor, L-685,458, were obtained from Bachem. H89 was from Calbiochem, insulin was from Sigma. The Jagged peptides, R-JAG […] (SEQ ID NO:1), JAG-1 […] (SEQ ID NO:2), and scrambled control peptide without agonist activity, sc-Jagged […] (Nickoloff, et al., Cell Death Differ, 9842-855 (2002)) (SEQ ID NO:3), were synthesised by New England Peptide Inc. […]
RIN cells were permeabilized in Triton-X (0.1%) on ice and blocked for 1 h at room temperature in 3% BSA and 0.1% Tween in PBS. They were incubated overnight at 4° C. with the primary antibody, washed in PBS and incubated with fluorescent labelled secondary antibody for 1 h, washed and mounted with fluorescence mounting medium (Vector Laboratories). […] AlexaFluor antibodies (Molecular Probes; Eugene, Oreg.) were excited with the 488-nm line of a krypton-argon laser and recorded at the presence of emission filter BP515-565 nm. […]

B1: Cholecystokinin (peptide, UniProt P06307 21-115, looked up)
Cholecystokinin: QPVPPADPAGSGLQRAEEAPRRQLRVSQRTDGESRAHLGALLARYIQQARKAPSGRMSIVKNLQNLDPSHRISDRDYMGWMDFGRRSAEEYEYPS
modifications: Cholecystokinin
notes: increases insulin secretion in a non-cAMP dependent manner
With B1 the “nuclear NICD / NICD translocation” value was “did not increase NICD translocation above that seen with glucose alone”.
